Data reported in patent publication US20060057138A1 (published 2006).

Legend:
[1] = target: T1, recombinant human Tie1-Fc (Tie1 extracellular domain fused to human Fc) (human, UniProt P35590 25-759); assay: SPR (BIAcore 3000), CM5 chip; format of this row not stated
T1 construct: also called human Tie1-Fc fusion protein; not shown: human Fc
T1 sequence: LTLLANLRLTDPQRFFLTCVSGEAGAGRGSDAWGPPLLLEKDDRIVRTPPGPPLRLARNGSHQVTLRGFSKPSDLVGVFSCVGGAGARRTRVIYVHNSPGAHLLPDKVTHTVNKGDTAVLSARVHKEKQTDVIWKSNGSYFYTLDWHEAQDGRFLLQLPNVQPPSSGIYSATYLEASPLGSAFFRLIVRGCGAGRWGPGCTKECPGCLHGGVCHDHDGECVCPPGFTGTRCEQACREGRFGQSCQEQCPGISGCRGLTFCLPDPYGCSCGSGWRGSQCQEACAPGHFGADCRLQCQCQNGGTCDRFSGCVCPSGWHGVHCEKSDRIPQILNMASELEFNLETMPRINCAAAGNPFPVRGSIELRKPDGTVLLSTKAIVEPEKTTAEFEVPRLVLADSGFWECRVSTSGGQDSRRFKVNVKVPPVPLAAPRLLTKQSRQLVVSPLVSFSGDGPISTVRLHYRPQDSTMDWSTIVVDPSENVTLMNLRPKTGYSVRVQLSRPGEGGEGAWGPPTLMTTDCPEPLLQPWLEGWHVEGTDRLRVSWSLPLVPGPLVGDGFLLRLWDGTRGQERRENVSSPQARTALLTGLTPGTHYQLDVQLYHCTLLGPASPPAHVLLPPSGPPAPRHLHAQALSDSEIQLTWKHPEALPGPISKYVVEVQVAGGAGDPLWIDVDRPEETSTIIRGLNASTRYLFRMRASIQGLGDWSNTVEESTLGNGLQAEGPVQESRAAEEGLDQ
Method: (§1) Affinity analysis of the Fab and IgGs was performed using surface plasmon resonance using a BIAcore 3000 instrument. For this analysis both dimeric (Tie1-Fc fusion protein) and monomeric (Tie1-HIS) versions of the extracellular domain of the Tie1 were used. The sensor chips used in these experiments were CM5 (dextran-coated) which allow immobilization of proteins to the chip via standard amine coupling chemistries. The concentration of flowed antibody was determined using a surface plasmon resonance based method. Using a high-density protein A sensor chip, under mass transport limited conditions, the response signal is dependent only on the concentration of the antibody in the sample under test. This approach allows a precise determination of the antibody concentration, a parameter important for accurate determination of the KD.
470 RUs of Tie1 HIS protein were coated on a CM5 sensor chip and 5, 20, 100, and 500 nM of the Fab flowed over the chip at four different flow rates ([…]), rates in which the system is not mass transport limited. Kinetic data was typically determined using a range of analyte concentrations and three different chip coating densities. The data from the lowest coating density that gave a good signal was typically chosen, this was often in a range from 50-100 RUs. Using such low coating densities allowed the sensor curves to be fit using BIAEVALUATION™ 3.0 software to a 1:1 model, often even when using a bivalent analyte (IgG or Tie1-Fc fusion protein). For bivalent analytes, when fit to a 1:1 model was not possible, the curves were fit using a 2:1 model.

[2] = target: T1, recombinant human Tie1-Fc (Tie1 …); assay: SPR, Tie1-Fc immobilized on the sensor chip, Fab as analyte
Method: as §1

[3] = target: T2, recombinant mouse Tie1-Fc (mouse, UniProt Q06806 23-755); assay: as above
T2 construct: extracellular domain; also called Mouse Tie 1-Fc antigen; mouse Tie1-Fc fusion protein; not shown: Fc
T2 sequence (looked up): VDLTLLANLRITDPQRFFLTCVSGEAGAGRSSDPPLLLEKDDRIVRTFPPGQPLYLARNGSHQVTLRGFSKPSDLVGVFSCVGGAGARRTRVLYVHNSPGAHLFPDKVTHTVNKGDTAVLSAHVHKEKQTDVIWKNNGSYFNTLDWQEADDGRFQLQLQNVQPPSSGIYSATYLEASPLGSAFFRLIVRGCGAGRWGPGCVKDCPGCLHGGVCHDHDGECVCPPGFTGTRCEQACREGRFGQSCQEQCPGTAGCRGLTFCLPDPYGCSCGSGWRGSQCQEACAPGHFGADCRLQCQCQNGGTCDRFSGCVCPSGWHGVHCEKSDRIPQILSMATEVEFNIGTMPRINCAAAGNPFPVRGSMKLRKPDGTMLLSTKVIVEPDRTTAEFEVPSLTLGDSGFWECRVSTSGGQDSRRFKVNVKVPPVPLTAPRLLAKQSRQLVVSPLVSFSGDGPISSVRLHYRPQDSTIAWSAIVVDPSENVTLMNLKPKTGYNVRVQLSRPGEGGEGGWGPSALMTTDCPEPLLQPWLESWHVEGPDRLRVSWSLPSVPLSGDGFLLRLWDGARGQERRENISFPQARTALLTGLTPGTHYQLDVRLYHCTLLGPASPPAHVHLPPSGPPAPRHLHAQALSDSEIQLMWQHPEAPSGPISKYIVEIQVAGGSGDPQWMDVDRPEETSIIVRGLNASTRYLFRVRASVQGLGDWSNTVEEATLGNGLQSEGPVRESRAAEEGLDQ
Method: as §1

[4] = target: T1, recombinant human Tie1-Fc (Tie1 …); assay: SPR, Tie1-Fc immobilized on CM5 sensor chip, bivalent anti-Tie1 as analyte
Method: as §1

B1: parental E3 Fab (Fab, V domains shown)
VH: EVQLLESGGGLVQPGGSLRLSCAASGFTFSMYGMVWVRQAPGKGLEWVSVISPSGGNTGYADSVKGRFTISRDNSKNTLYLQVNSLRAEDTAVYYCARAPRGYSYGYYYWGQGTLVTVSS
VL: DIQMTQSPLSLSASVGDRVTITCRASQGIGHYLAWYQQKPGKVPKLLIYTASTLQSGVPSRFSGSGSGTDFTLTINSLQPEDVATYYCQQFNSYPHTFGQGTRLDIK
notes: also called E3 Fab parental; parental Fab E3
Which results are given for B1?
Kd [1]: 5.4 nM; koff [1]: 4.47e-05 s⁻¹; kon [1]: 8260 M⁻¹ s⁻¹

B2: E3b Fab (heavy and light chain germlined E3 Fab) (Fab, V domains shown)
VH: EVQLLESGGGLVQPGGSLRLSCAASGFTFSMYGMVWVRQAPGKGLEWVSVISPSGGNTGYADSVKGRFTISRDNSKNTLYLQMNSLRAEDTAVYYCARAPRGYSYGYYYWGQGTLVTVSS
VL: DIQMTQSPSSLSASVGDRVTITCRASQGIGHYLAWYQQKPGKVPKLLIYTASTLQSGVPSRFSGSGSGTDFTLTISSLQPEDVATYYCQQFNSYPHTFGQGTRLEIK
notes: The germlined heavy variable domain is printed with limits only under DX-2240; also called Fab E3b; germlined (E3b)
What does the source list for B2?
Kd [2]: ~3 nM; Kd [3]: ~3 nM; Kd [1]: 4.7 nM; koff [1]: 4.41e-05 s⁻¹; kon [1]: 9300 M⁻¹ s⁻¹

B3: DX-2220 (full length, IgG1, germlined human anti-Tie1 antibody E3b) (antibody, V domains shown)
VH: EVQLLESGGGLVQPGGSLRLSCAASGFTFSMYGMVWVRQAPGKGLEWVSVISPSGGNTGYADSVKGRFTISRDNSKNTLYLQMNSLRAEDTAVYYCARAPRGYSYGYYYWGQGTLVTVSS
VL: DIQMTQSPSSLSASVGDRVTITCRASQGIGHYLAWYQQKPGKVPKLLIYTASTLQSGVPSRFSGSGSGTDFTLTISSLQPEDVATYYCQQFNSYPHTFGQGTRLEIKR
notes: also called E3b-IgG1; germlined E3b IgG1
Which results are given for B3?
Kd [1]: 5.2 nM; koff [1]: 3.67e-05 s⁻¹; kon [1]: 7090 M⁻¹ s⁻¹; Kd [4]: 0.2 nM; fold increase in affinity against the anti-Tie1 Fab [4]: > 10 fold
